From the supplement of paper PMC10567573

B1: KRT18 (parent)
chain: PQVRDWSHYFKIIEDLRAQIFANT

Variants of: B1
Assay: protein stability index of a GFP-peptide fusion (GPS, HEK-293T) (PSI 1-6); higher = more stable
Conditions: c terminus: a fixed tail appended
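Also: lentivirally expressed fusions sorted by FACS into six bins by GFP to DsRed ratio, PSI derived from sequencing read proportions per bin multiplied by bin number.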

Going from PQVRDWSHYFKIIEDLRAQIFDNT to PQVRDWSHYFKIIEDLRAQIFSNT, the protein stability index falls from 2.49 to 2.17.

Going from PQVRDWSHYFKIIEDLRAQIFFNT to PQVRDWSHYFKIIEDLRAQIFNNT, the protein stability index rises from 1.8 to 2.53.

Going from PQVRDWSHYFKIIEDLRAQIFHNT to PQVRDWSHYFKIIEDLRAQIFWNT, the protein stability index falls from 2 to 1.41.

First: PQVRDWSHYFKIIEDLRAQIFQNT
Second: PQVRDWSHYFKIIEDLRAQIFTNT
The protein stability index of the first is higher: 2.72 for the first, 2.14 for the second.

Compared with PQVRDWSHYFKIIEDLRAQIFENT, PQVRDWSHYFKIIEDLRAQIFGNT is higher in protein stability index: 2.12 for the first, 2.51 for the second.

First: PQVRDWSHYFKIIEDLRAQIFRNT
Second: PQVRDWSHYFKIIEDLRAQIFLNT
The protein stability index of the first is higher: 1.99 for the first, 1.45 for the second.

First: PQVRDWSHYFKIIEDLRAQIFYNT
Second: PQVRDWSHYFKIIEDLRAQIFMNT
The protein stability index of the first is lower: 1.64 for the first, 2.37 for the second.

Compared with PQVRDWSHYFKIIEDLRAQIFCNT, PQVRDWSHYFKIIEDLRAQIFINT is higher in protein stability index: 1.9 for the first, 2.5 for the second.

First: PQVRDWSHYFKIIEDLRAQIFPNT
Second: PQVRDWSHYFKIIEDLRAQIFKNT
The protein stability index of the first is higher: 2.4 for the first, 2.1 for the second.

Going from PQVRDWSHYFKIIEDLRAQIFVNT to PQVRDWSHYFKIIEDLRAQIPANT, the protein stability index rises from 2.01 to 2.15.

First: PQVRDWSHYFKIIEDLRAQIMANT
Second: PQVRDWSHYFKIIEDLRAQIKANT
The protein stability index of the first is lower: 2.16 for the first, 2.98 for the second.

First: PQVRDWSHYFKIIEDLRAQIEANT
Second: PQVRDWSHYFKIIEDLRAQILANT
The protein stability index of the first is higher: 2.98 for the first, 2.7 for the second.

First: PQVRDWSHYFKIIEDLRAQIVANT
Second: PQVRDWSHYFKIIEDLRAQIIANT
The protein stability index of the first is higher: 2.39 for the first, 1.91 for the second.

Going from PQVRDWSHYFKIIEDLRAQIHANT to PQVRDWSHYFKIIEDLRAQICANT, the protein stability index falls from 2.4 to 1.97.

First: PQVRDWSHYFKIIEDLRAQIQANT
Second: PQVRDWSHYFKIIEDLRAQIGANT
The protein stability index of the first is lower: 2.46 for the first, 2.52 for the second.

Going from PQVRDWSHYFKIIEDLRAQIWANT to PQVRDWSHYFKIIEDLRAQISANT, the protein stability index rises from 1.84 to 2.32.

First: PQVRDWSHYFKIIEDLRAQIYANT
Second: PQVRDWSHYFKIIEDLRAQIRANT
The protein stability index of the first is higher: 3.6 for the first, 2.33 for the second.

Going from PQVRDWSHYFKIIEDLRAQIDANT to PQVRDWSHYFKIIEDLRAQINANT, the protein stability index falls from 3.27 to 2.46.

Compared with PQVRDWSHYFKIIEDLRAQITANT, PQVRDWSHYFKIIEDLRAQIAANT is higher in protein stability index: 1.97 for the first, 2.83 for the second.

First: PQVRDWSHYFKIIEDLRAQNFANT
Second: PQVRDWSHYFKIIEDLRAQMFANT
The protein stability index of the first is higher: 3.05 for the first, 2.15 for the second.

Compared with PQVRDWSHYFKIIEDLRAQAFANT, PQVRDWSHYFKIIEDLRAQEFANT is higher in protein stability index: 2.07 for the first, 2.86 for the second.

Compared with PQVRDWSHYFKIIEDLRAQPFANT, PQVRDWSHYFKIIEDLRAQTFANT is higher in protein stability index: 1.91 for the first, 2.83 for the second.

First: PQVRDWSHYFKIIEDLRAQYFANT
Second: PQVRDWSHYFKIIEDLRAQLFANT
The protein stability index of the first is higher: 2.16 for the first, 2 for the second.

Going from PQVRDWSHYFKIIEDLRAQWFANT to PQVRDWSHYFKIIEDLRAQCFANT, the protein stability index rises from 1.62 to 1.86.

Compared with PQVRDWSHYFKIIEDLRAQQFANT, PQVRDWSHYFKIIEDLRAQRFANT is higher in protein stability index: 2.09 for the first, 2.75 for the second.

Going from PQVRDWSHYFKIIEDLRAQGFANT to PQVRDWSHYFKIIEDLRAQVFANT, the protein stability index falls from 2.9 to 2.08.

Going from PQVRDWSHYFKIIEDLRAQHFANT to PQVRDWSHYFKIIEDLRAQFFANT, the protein stability index rises from 1.89 to 2.22.

Compared with PQVRDWSHYFKIIEDLRAQDFANT, PQVRDWSHYFKIIEDLRAQKFANT is higher in protein stability index: 2.59 for the first, 2.7 for the second.

Going from PQVRDWSHYFKIIEDLRAQSFANT to PQVRDWSHYFKIIEDLRQQIFANT, the protein stability index falls from 2.17 to 2.02.

Going from PQVRDWSHYFKIIEDLRRQIFANT to PQVRDWSHYFKIIEDLRMQIFANT, the protein stability index falls from 2.44 to 1.81.

Going from PQVRDWSHYFKIIEDLRFQIFANT to PQVRDWSHYFKIIEDLRGQIFANT, the protein stability index falls from 2.24 to 1.9.

Going from PQVRDWSHYFKIIEDLRTQIFANT to PQVRDWSHYFKIIEDLRVQIFANT, the protein stability index rises from 1.48 to 1.97.

First: PQVRDWSHYFKIIEDLRPQIFANT
Second: PQVRDWSHYFKIIEDLRIQIFANT
The protein stability index of the first is higher: 2.15 for the first, 2.13 for the second.

Compared with PQVRDWSHYFKIIEDLRCQIFANT, PQVRDWSHYFKIIEDLRNQIFANT is higher in protein stability index: 1.94 for the first, 2.8 for the second.

Going from PQVRDWSHYFKIIEDLRSQIFANT to PQVRDWSHYFKIIEDLRKQIFANT, the protein stability index rises from 2.25 to 2.68.

Compared with PQVRDWSHYFKIIEDLRYQIFANT, PQVRDWSHYFKIIEDLRLQIFANT is higher in protein stability index: 1.77 for the first, 2.29 for the second.

First: PQVRDWSHYFKIIEDLREQIFANT
Second: PQVRDWSHYFKIIEDLRDQIFANT
The protein stability index of the first is higher: 2.7 for the first, 2.44 for the second.

Going from PQVRDWSHYFKIIEDLRWQIFANT to PQVRDWSHYFKIIEDLRHQIFANT, the protein stability index falls from 2.34 to 1.88.

First: PQVRDWSHYFKIIEKLRAQIFANT
Second: PQVRDWSHYFKIIEVLRAQIFANT
The protein stability index of the first is higher: 3.02 for the first, 2.32 for the second.

Going from PQVRDWSHYFKIIEELRAQIFANT to PQVRDWSHYFKIIEWLRAQIFANT, the protein stability index falls from 2.28 to 1.61.

Going from PQVRDWSHYFKIIEPLRAQIFANT to PQVRDWSHYFKIIEHLRAQIFANT, the protein stability index rises from 1.4 to 1.57.

Compared with PQVRDWSHYFKIIESLRAQIFANT, PQVRDWSHYFKIIEMLRAQIFANT is higher in protein stability index: 2.09 for the first, 2.87 for the second.

Going from PQVRDWSHYFKIIENLRAQIFANT to PQVRDWSHYFKIIEILRAQIFANT, the protein stability index falls from 2.1 to 1.74.

Going from PQVRDWSHYFKIIEGLRAQIFANT to PQVRDWSHYFKIIEALRAQIFANT, the protein stability index rises from 2.16 to 2.47.

Going from PQVRDWSHYFKIIEFLRAQIFANT to PQVRDWSHYFKIIEQLRAQIFANT, the protein stability index rises from 1.58 to 1.71.

Going from PQVRDWSHYFKIIEYLRAQIFANT to PQVRDWSHYFKIIERLRAQIFANT, the protein stability index falls from 3.62 to 1.89.

Going from PQVRDWSHYFKIIELLRAQIFANT to PQVRDWSHYFKIIETLRAQIFANT, the protein stability index falls from 2.69 to 1.78.
